According to patent US20240383983A1 (ABL BIO, published 2024):

Experiments:
[1] = target: T1, Fc fused human B7-H4 protein (human, UniProt Q7Z7D3 29-258, limits assumed); test: ELISA, Fc fused human B7-H4 coated at 1 µg/ml, anti-human Fab HRP
T1 construct: Coated on ELISA plates; not shown: Fc part
T1 sequence (looked up): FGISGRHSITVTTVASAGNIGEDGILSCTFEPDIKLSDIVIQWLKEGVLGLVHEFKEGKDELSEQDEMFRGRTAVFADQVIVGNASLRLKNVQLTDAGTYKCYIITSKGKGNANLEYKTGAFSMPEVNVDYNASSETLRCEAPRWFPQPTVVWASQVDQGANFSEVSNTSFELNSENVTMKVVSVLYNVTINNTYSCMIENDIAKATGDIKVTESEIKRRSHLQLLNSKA
Experimental: To evaluate the antigen binding activity of the humanized antibody, 16E3H3 M1 was subjected to ELISA. Briefly, ELISA plates were coated with Fc fused human B7-H4 protein at 1 μg/ml in PBS, 100 ul/well at 4° C. overnight, then blocked with 200 ul/well of 1% BSA in PBS at 37° C. Four fold dilutions of monoclonal antibody starting from 100 nM were added to each well and incubated for 1 hours at 37° C. The plates were washed with PBST (0.05% Tween 20 in PBS) and then incubated with HRP (Horse Radish Peroxidase) conjugated Anti-human Fab for 1 hr at 37° C. The plates were washed with PBST (Tween 20 0.05% in PBS) developed with TMB substrate and analyzed by spectrophotometer at OD 450 nm˜650 nm. As shown FIG. 2. 16E3H3 M1 bound to human B7-H4 with dose dependent manner.

[2] = target: T2, human B7-H4 expressed on cells (CHOK-1 B7-H4, SK-BR3, CAMA-1, MDA-MB-468, MX-1, OVCAR-3) (human, UniProt Q7Z7D3 25-282); test: FACS on SK-BR3 cells, FITC anti-human IgG1 detection; y axis 'Fold of induction'
T2 construct: whole, on cells; also called B7-H4 expressed cell line; B7-H4 positive cancer cell lines
T2 sequence (looked up): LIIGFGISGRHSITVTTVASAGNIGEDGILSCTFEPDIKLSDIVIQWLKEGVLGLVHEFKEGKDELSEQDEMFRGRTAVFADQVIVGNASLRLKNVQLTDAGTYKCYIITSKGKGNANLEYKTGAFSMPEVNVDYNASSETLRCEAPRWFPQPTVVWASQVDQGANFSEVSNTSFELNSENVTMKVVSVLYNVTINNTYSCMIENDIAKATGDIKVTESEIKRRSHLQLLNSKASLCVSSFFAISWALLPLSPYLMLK
Experimental: (§1) To evaluate the tumor antigen binding property, 16E3H3 M1 clone was analyzed for its binding to B7-H4-expressing mammalian cells by FACS. Briefly, B7-H4 positive cell (MX-1, CAMA-1, SK-BR3 and OVCAR-3) or B7-H4 negative cells (PANC-1) were incubated with M40413 antibody. After wash by FACS buffer (1% BSA in PBS), the FITC-anti-human IgG 1 antibody was added to each well and incubated at 4° C. for 45 min. The MFI of FITC was evaluated by FACS Calibur.

[3] = target: T2, human B7-H4 expressed on cells (CHOK-1 …); test: FACS on CAMA-1 cells, FITC anti-human IgG1 detection; y axis 'Fold of induction'
Experimental: as §1

recombinant human B7-H4 = target: T3, recombinant human B7-H4 (human, UniProt Q7Z7D3 29-258, limits assumed); test: SPR, antibody captured on Protein A chip, B7-H4 100 nM to 6.25 nM as analyte
T3 construct: also called Recombinant B7-H4 (Human)
T3 sequence (looked up): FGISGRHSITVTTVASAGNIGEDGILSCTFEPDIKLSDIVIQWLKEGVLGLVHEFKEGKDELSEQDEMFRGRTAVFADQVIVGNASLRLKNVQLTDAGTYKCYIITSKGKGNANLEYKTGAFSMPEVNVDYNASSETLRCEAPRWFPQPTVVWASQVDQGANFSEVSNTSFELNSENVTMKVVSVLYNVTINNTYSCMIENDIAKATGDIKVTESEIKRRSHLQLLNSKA
Experimental: (§2) In the SPR experiment, the anti-B7-H4/anti-4-1BB bispecific antibody obtained in Preparation Example 3 was captured on flow-cells 2, 3 and 4, keeping the flow-cell 1 as reference, on a Protein A Chip on which an anti-B7-H4/anti-4-1BB Bispecific antibody (B10317) has been immobilized by amine coupling. Recombinant B7-H4 (Human/Monkey) or 4-1BB (Human/Monkey) protein was flowed across the chip at concentration range from 100 nM to 6.25 nM for B7-H4 or 250 nM to 15.625 nM for 4-1BB at 30 μl/min for 60 seconds, followed by a dissociation phase of 180 seconds. Regeneration was performed with 10 mM Glycine-HCl (pH 1.5).

[4] = target: T4, Recombinant B7-H4 (Monkey) protein (Monkey); test: as above
T4 construct: also called monkey B7-H4
Experimental: as §2

[5] = target: 4-1BB on GloResponse NFκB-luc2/4-1BB Jurkat cells (UniProt Q07011 24-255, limits assumed); test: cell-based or functional assay
Chain of 4-1BB on GloResponse NFκB-luc2/4-1BB Jurkat cells (Q07011 24-255 limits assumed): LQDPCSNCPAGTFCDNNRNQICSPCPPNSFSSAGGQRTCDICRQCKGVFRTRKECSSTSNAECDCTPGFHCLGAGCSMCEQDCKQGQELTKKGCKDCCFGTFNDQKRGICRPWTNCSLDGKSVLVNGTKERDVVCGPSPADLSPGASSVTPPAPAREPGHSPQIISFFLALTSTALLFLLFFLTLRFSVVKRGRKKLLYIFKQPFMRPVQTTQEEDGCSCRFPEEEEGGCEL

[6] = target: T2, human B7-H4 expressed on cells (CHOK-1 …); test: FACS on MX-1 cells, FITC anti-human IgG detection; table under the graph prints no unit, x axis is Ab, Log[nM]
Experimental: (§3) To evaluate the tumor antigen binding property, B10317 bispecific antibody was analyzed for its binding to B7-H4-expressing mammalian cells by FACS. Briefly, B7-H4 positive cells (MX-1 and CAMA-1) were incubated with B10317 antibodies. After wash by FACS buffer (1% BSA in PBS), the FITC-anti-human IgG antibody was added to each well and incubated at 4° C. for 45 min. The MFI of FITC was evaluated by FACS Calibur.

[7] = target: T5, Recombinant 4-1BB (Monkey) protein (Monkey); test: SPR, antibody captured on Protein A chip, 4-1BB 250 nM to 15.625 nM as analyte
T5 construct: also called monkey 4-1BB
Experimental: as §2

B7-2 = target: T6, B7-2; test: ELISA on plate-coated B7-2 (100 ng/well), three-fold dilutions of B10317 from 100 nM
T6 construct: one of the 'other B7-family proteins'; Commonly known as CD86
T6 chain: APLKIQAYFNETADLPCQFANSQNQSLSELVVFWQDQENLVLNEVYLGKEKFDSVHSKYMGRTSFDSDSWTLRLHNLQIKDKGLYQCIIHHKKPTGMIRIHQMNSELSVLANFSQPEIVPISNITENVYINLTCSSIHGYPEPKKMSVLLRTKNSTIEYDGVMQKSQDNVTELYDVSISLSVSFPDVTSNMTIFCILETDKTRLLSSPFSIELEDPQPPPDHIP
Experimental: (§4) To confirm the specific binding of anti-B7-H4/anti-4-1BB bispecific antibody against B7-H4, B10317 subjected to ELISA test. Microtiter plates were coated with each protein (100 ng/well) at 4° C. overnight, then blocked with 200 μl/well PBSB (1% (w/v) BSA in PBS). Three-fold dilutions of B10317 starting from 100 nM was added to each well and incubated at 37° C. for 1 hours. The plates were washed with PBST (0.05% (v/v) Tween20 in PBS) and then incubate for 1 hours at 37° C. with 100 ul of Anti-Fc HRP (Dilution factor, 1:30000) or Anti-Fab HRP (Dilution factor, 1:20000). The plates were washed with PBST (0.05% (v/v) Tween20 in PBS) and then the plates were developed with TMB substrate and analyzed by spectrophotometer at 450-650 nm.

B7-1 = target: T7, B7-1; test: ELISA on plate-coated B7-1 (100 ng/well), three-fold dilutions of B10317 from 100 nM
T7 construct: one of the 'other B7-family proteins'; Commonly known as CD80
T7 chain: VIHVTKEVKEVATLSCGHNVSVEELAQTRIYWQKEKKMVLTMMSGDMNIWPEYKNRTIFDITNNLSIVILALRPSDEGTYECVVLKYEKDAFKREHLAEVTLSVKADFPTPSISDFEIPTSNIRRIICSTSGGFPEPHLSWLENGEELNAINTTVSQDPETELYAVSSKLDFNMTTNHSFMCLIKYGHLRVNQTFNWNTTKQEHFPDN
Experimental: as §4

[8] = target: T2, human B7-H4 expressed on cells (CHOK-1 …); test: FACS on CAMA-1 cells, FITC anti-human IgG detection; table under the graph prints no unit, x axis is Ab, Log[nM]
Experimental: as §3

B7-H6 = target: T8, B7-H6; test: ELISA on plate-coated B7-H6 (100 ng/well), three-fold dilutions of B10317 from 100 nM
T8 construct: one of the 'other B7-family proteins'; Commonly known as NCR3LG1
T8 chain: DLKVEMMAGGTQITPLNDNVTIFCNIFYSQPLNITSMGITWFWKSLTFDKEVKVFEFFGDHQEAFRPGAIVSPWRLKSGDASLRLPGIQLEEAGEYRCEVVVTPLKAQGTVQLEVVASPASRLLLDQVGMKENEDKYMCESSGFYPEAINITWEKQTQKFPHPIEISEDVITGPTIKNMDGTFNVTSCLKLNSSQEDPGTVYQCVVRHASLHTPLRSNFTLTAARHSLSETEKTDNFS
Experimental: as §4

B7-H2 = target: T9, B7-H2; test: ELISA on plate-coated B7-H2 (100 ng/well), three-fold dilutions of B10317 from 100 nM
T9 construct: one of the 'other B7-family proteins'; Commonly known as ICOS ligand
T9 chain: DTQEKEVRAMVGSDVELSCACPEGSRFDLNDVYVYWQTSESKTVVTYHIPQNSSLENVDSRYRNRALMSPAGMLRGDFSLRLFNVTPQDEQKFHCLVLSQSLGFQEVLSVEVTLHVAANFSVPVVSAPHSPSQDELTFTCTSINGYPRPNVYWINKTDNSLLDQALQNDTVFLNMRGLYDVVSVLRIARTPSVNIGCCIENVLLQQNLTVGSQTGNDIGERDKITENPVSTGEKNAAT
Experimental: as §4

B1: 16E3H3 M1 monospecific antibody (humanized anti-B7-H4 IgG1) (antibody, V domains shown)
VH: QVQLVQSGAEVKKPGASVKVSCKASGYPFTTYGMNWVKQAPGQGLEWMGWIDTYSGVPTYADDFKGRVTMTRDTSISTAYMELSRLRSDDTAVYFCARRSFWYFDVWGAGTTVTVSS
VL: DVVMTQSPLSLPVTLGQPASISCRSSQSLVHSNANTYLHWYLQRPGQSPRLLIYKVSNRFSGVPDRFSGSGSGTDFTLKISRVEAEDVGVYFCSQSTHVPWTFGGGTKVEIKR
notes: Humanized 16E3H3 with G29A in CDR-L1 for PTM removal; also called M40413; 16E3H3 M1 clone
[1]
  EC50: 0.079 nM
[2]
  EC50 (read off the curve): ~4 nM
[3]
  EC50 (read off the curve): ~5 nM

B2: 16E3H3 M1 x 1A10 M12 anti-B7-H4/anti-4-1BB bispecific antibody (bispecific antibody, human IgG1, kappa, N297A)
heavy: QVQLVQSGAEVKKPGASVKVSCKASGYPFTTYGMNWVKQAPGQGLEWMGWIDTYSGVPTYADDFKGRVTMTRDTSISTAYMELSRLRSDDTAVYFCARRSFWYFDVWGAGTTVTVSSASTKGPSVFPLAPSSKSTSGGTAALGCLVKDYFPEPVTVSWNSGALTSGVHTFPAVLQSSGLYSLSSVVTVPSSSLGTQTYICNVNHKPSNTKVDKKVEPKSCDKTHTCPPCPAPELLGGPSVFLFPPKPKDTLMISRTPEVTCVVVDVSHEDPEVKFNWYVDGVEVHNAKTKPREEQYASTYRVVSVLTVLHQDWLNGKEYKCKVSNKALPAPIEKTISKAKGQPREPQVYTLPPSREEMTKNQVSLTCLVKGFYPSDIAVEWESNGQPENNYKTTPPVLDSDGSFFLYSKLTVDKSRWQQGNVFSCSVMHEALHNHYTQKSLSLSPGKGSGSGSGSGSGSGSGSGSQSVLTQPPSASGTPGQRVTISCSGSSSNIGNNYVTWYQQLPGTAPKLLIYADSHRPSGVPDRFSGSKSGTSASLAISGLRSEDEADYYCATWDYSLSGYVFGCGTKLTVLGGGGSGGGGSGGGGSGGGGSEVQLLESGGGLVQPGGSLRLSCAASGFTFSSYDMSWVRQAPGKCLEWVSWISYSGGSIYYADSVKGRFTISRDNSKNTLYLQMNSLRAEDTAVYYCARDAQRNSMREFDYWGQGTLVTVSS
light: DVVMTQSPLSLPVTLGQPASISCRSSQSLVHSNANTYLHWYLQRPGQSPRLLIYKVSNRFSGVPDRFSGSGSGTDFTLKISRVEAEDVGVYFCSQSTHVPWTFGGGTKVEIKRTVAAPSVFIFPPSDEQLKSGTASVVCLLNNFYPREAKVQWKVDNALQSGNSQESVTEQDSKDSTYSLSSTLTLSKADYEKHKVYACEVTHQGLSSPVTKSFNRGEC
notes: IgG-scFv format: anti-B7-H4 IgG1 (N297A) heavy chain, (GS)9 linker, anti-4-1BB scFv 1A10 M12 (VL-(GGGGS)4-VH) at the C-terminus; also called B10317; 16E3H3 M1×1A10M12
Recombinant human B7-H4
  Kd: 4.36 nM
  koff: 0.00225 s⁻¹
  kon: 517000 M⁻¹ s⁻¹
[4]
  Kd: 4.53 nM
  koff: 0.00278 s⁻¹
  kon: 614000 M⁻¹ s⁻¹
[5]
  EC50 (nM) [NF-kB assay], with B-CAG-hB7-H4 MC38 cells: 0.093 nM
  EC50 (nM) [NF-kB assay], with CAMA-1 cells: 0.145 nM
  EC50 (nM) [NF-kB assay], with HCC1954 cells: 0.647 nM
  EC50 (nM) [NF-kB assay], with MDA-MB-468 cells: 0.403 nM
  EC50 (nM) [NF-kB assay], with MX-1 cells: 0.184 nM
  EC50 (nM) [NF-kB assay], with OVCAR3 cells: 0.288 nM
  EC50 (nM) [NF-kB assay], with SK-BR3 cells: 0.234 nM
  Fold of Induction [NF-kB assay], with B-CAG-hB7-H4 MC38 cells: 76.1 fold
  Fold of Induction [NF-kB assay], with CAMA-1 cells: 44.3 fold
  Fold of Induction [NF-kB assay], with CHOK1 cells (B7-H4 negative): 1.49 fold
  Fold of Induction [NF-kB assay], with HCC1954 cells: 3.01 fold
  Fold of Induction [NF-kB assay], with MC38 cells (B7-H4 negative): 2.32 fold
  Fold of Induction [NF-kB assay], with MDA-MB-468 cells: 6.74 fold
  Fold of Induction [NF-kB assay], with MX-1 cells: 62.9 fold
  Fold of Induction [NF-kB assay], with OVCAR3 cells: 5.02 fold
  Fold of Induction [NF-kB assay], with PANC1 cells (B7-H4 negative): 1.11 fold
  Fold of Induction [NF-kB assay], with SK-BR3 cells: 30.8 fold
[6]
  EC50: 10.3 nM
[7]
  Kd: 4.01 nM
  koff: 0.000899 s⁻¹
  kon: 224000 M⁻¹ s⁻¹
B7-2
  binding result: no binding (tested: 100 nM)
B7-1
  binding result: no binding (tested: 100 nM)
[8]
  EC50: 6.46 nM
B7-H6
  binding result: no binding (tested: 100 nM)
B7-H2
  binding result: no binding (tested: 100 nM)
